Reference: patent US7754216B2, “Method of treating multiple sclerosis with anti-K6 antibody” (Mayo Foundation for Medical Education and Research, priority 2002, dated 2010)

Legend:
[1] = molecular target: rat myelin basic protein (MBP) (UniProt P02688)
[2] = molecular target: T1, recombinant rat myelin oligodendrocyte glycoprotein (αMOG), extracellular domain, amino acids 1-125 (UniProt Q63345)
T1 sequence: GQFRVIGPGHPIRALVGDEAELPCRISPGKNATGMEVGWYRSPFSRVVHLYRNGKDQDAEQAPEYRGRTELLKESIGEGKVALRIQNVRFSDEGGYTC

K6 mRNA in spinal cord = K6 mRNA in spinal cord after kainic acid excitotoxic injury; assay type: in vivo, rat; conditions: three days after intraperitoneal KA
Description: Levels of K6 mRNA in adult rat spinal cord were increased in both white and gray matter following kainic acid (KA)-induced excitotoxic injury. Dark-field photomicrographs (FIG. 1) show the autoradiographic localization of K6 mRNA in a transverse section through the spinal cord of a control rat, and in parallel sections of paired experimental rats at 3 and 7 days after intraperitoneal injection of KA. By three days after KA treatment, K6 mRNA was 2-fold higher in the white matter and 1.5-fold higher in the dorsal horn (DH) and ventral horn (VH) of the spinal cord gray matter, compared to controls (P<0.05).

Chain of UniProt P02688 (P02688 2-195): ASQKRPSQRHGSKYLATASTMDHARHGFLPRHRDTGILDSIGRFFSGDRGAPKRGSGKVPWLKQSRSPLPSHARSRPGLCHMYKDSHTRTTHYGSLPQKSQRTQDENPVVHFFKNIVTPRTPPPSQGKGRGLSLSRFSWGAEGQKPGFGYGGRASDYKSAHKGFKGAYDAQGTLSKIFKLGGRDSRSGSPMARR

K6 (recombinant; species not stated where used)
degradation on 7.5% SDS-PAGE (collagen type I): Collagen type I was degraded within 5 minutes of K6 addition | degradation on 7.5% SDS-PAGE (fibronectin): Fibronectin was partially degraded within 1 hour of K6 addition and was completely degraded by 24 hours | degradation on 7.5% SDS-PAGE (laminin): Laminin was partially degraded by one hour after K6 addition, and was completely degraded by 16 hours

recombinant rat K6 (r-K6)
degradation on 16.5% Tricine SDS-PAGE [1]: MBP was partially degraded by 10 minutes after addition of K6, and showed much greater levels of degradation at 30 minutes and 60 minutes | degradation on 16.5% Tricine SDS-PAGE [2]: αMOG was partially degraded by 1 hour after addition of K6, and was completely degraded by 4 hours

C=C(C)[C@H]1CN[C@H](C(=O)O)[C@H]1CC(=O)O [KA, kainic acid]
K6 mRNA in dorsal horn (DH) and ventral horn (VH) gray matter compared to controls (K6 mRNA in spinal cord): 1.5 fold | K6 mRNA in spinal cord white matter compared to controls (K6 mRNA in spinal cord): 2 fold
